The values below come from patent US20090221530A1, “Relaxase Modulators and Methods of Using Same” (priority 2005, published 2009).

One data set addresses T1, F plasmid TraI N300 (Escherichia coli, UniProt P14565).
T1 construct: An amino-terminal 300 residue F plasmid TraI construct; made in house; host or cells: E. coli BL21 (DE3)/pLysS or HMS174 (DE3)/pLysS, vector pTYB2
In words: Fluorescence kinetic assay of oriT DNA cleavage and crossover by TraI N300. Format: biochemical, E. coli. Conditions: data not shown. On the procedure: Reaction Buffer: 6.42 mM MgCl2, 20.5% glycerol, 153.9 mM NaCl, and 51.3 mM Tris-HCl pH 7.5. Streptavidin Wash Buffer (Tris buffered saline, TBS/Tween): and 150 mM NaCl, 25 mM Tris-HCl pH 7.5, and 0.05% Tween-20. Stopping Buffer: 1.2% sodium-dodecyl sulfate (SDS), and 300 mM EDTA pH 10. TE Buffer: 1 mM EDTA, and 10 mM Tris-HCl pH 7.4. Fluorescence Buffer: 80% glycerol, 200 mM Tris-HCl pH 8.0. Short-term N300 stock (for storage at −20° C.): 50% Reaction Buffer, 49.8% glycerol, 0.2% long-term protein solution (84.6 nM final N300 concentration). All 5× stocks except Probe stocks were diluted in Reaction Buffer. 5× Enzyme Stock: 8.4 mL short-term N300 stock diluted to 2.02 nM N300. 5× Inhibitor Stocks: imidodiphosphate (pNp) at 0-50 nM in Reaction Buffer. 5× Substrate Stocks: oligonucleotides b29 and PCb31eco diluted to […] each, by 3-fold serial dilutions. 5× Probe Stocks: […] (1.2-fold molar excess) oligonucleotide downF in TE Buffer. All reactions and procedures involving downF were assembled or performed in darkened conditions. Solutions and microtiter plates containing downF were kept in foil-lined containers at all times to prevent photobleaching.
Two oriT derived oligonucleotides, b29 and PCb31eco, were designed for binding and cleavage by TraI based on past studies (see Oligonucleotides section herein; FIG. 4A). The overall method is modified from those described previously for the study of TraI and R388TrwC (Byrd et al., 2002; Grandoso et al., 2000; Matson and Morton, 1991). Reactions were assembled from 16 μL of 5× Substrate Stock, 16 μL of 5× Inhibitor Stock, and 32 μL of Reaction Buffer. 80 μL reactions were initiated with 16 μL of 5× Enzyme Stock and raised to 37° C. 10 μL samples were removed at eight time points (optimized to define timecourses) and stopped in 10 μL of Stopping Buffer at room temperature. Stopped reactions were placed on a 100° C. heat block for one minute, spiked with 2 μL of 5× Probe Stock while still hot, and incubated at 37° C. for 10 minutes (see Kinetic Assay Formulations for probe handling).
Samples were diluted to […] with Streptavidin Wash Buffer and transferred to Biobind Assembly streptavidin-coated microtiter plates (Thermo Electron Corporation, Waltham, Mass., U.S.A.) and incubated at 37° C. for 45 minutes. Plates were washed with at least 5-fold excess Streptavidin Wash Buffer (in an inverted position to prevent excess biotinylated species from transferring between wells). Wells were filled with 65 μL of Fluorescence Buffer for optimum 6-FAM™ fluorescence. Plates were read in a FLUOSTAR OPTIMA™ (BMG Labtech, Offenburg, Germany) with a 490 nm excitation and 520 nm emission filters (10 nm bandpass) with the gain optimized for maximum signal. The timecourses thus collected were designated Cleavage Courses. Plates were removed and irradiated with 306 nm ultraviolet radiation for 10 minutes to cleave the PC biotin linker. They were then washed inverted with at least 5-fold excess Streptavidin Wash Buffer, filled with 65 μL of Fluorescence Buffer, and again read as above. These timecourses were designated Cleavage+Crossover Courses (FIG. 4A).
All timecourses were fitted by nonlinear regression with un-weighted least-squares methods using SIGMAPLOT™ 8.0 (SYSTAT Software, Inc., Point Richmond, Calif., U.S.A.) (also used for graph construction). Timecourses with blanked signals in arbitrary fluorescence units were scaled by curve mean in groups of at least four replicates, culled for outliers, and averaged by time point. On average, one replicate time point was culled from each group of four used. The averaged curves were fitted to a simple, three-parameter exponential decay equation (Equation 1), time versus signal, and converted into units of concentration.
where t is time in seconds, y0+a is the initial signal, b is a constant that determines the shape of the curve. […]

In data set [1] the test system is TraI H159E H159E (Escherichia coli F plasmid). In words: cleavage_in_vitro. The settings on record: crossover eliminated per text (nd in table); in vivo transfer 0.0010%; 6 mM MgCl2, 37 C.
Data set [2] has as its system TraI D81N D81N (Escherichia coli F plasmid). Nature of the data set: cleavage_in_vitro. Conditions: crossover 10%; in vivo transfer 0.0030%; printed DB1N in table; 6 mM MgCl2, 37 C.
For data set [3], the system named is TraI K265M K265M (Escherichia coli F plasmid). In words: cleavage_in_vitro. Conditions: in vivo transfer 59%; 6 mM MgCl2, 37 C.
In data set [4] the test system is TraI H159Q H159Q (Escherichia coli F plasmid). Nature of the data set: cleavage_in_vitro. The settings on record: crossover 95%; text calls this no change; 6 mM MgCl2, 37 C.
Data set [5] relates to TraI wild-type (full length or N300) (Escherichia coli F plasmid). In words: cleavage_in_vitro. Conditions: crossover 100%; 6 mM MgCl2, 150 mM NaCl, pH 7.5, 37 C.

T1 sequence (P14565 1-306): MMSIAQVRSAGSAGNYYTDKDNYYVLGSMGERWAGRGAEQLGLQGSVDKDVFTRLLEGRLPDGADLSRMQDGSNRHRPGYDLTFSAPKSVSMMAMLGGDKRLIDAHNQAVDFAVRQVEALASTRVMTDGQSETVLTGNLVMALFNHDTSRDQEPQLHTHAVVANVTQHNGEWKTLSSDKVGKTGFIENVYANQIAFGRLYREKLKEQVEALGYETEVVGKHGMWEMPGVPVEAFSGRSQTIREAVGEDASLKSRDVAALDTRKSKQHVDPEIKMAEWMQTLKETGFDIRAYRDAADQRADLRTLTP

With `O=P(O)(O)OP(=O)(O)O` [Pyrophosphate, reference compound], the “effect on enzyme activity” value on F plasmid TraI N300 is “no effect”.
For the molecule oriT 22-mer, the activity (% of WT cleavage) in data set [1] turned out to be 8.5; in data set [2], 53; in data set [3], 100; in data set [4] it was 55. Besides, the activity in data set [5] turned out to be 100 % cleavage.
